Bridge positions count the residues as written; N and C are the ends. Square brackets hold non-standard residues; d marks the D form. Ends that are not written are not given here. Lys(N3) = [N-]=[N+]=NCCCC[C@H](N)C(=O)O; Pra = C#CC[C@H](N)C(=O)O
What was measured:
Conditions in all cases: both partners purified
[1] = target: T1, recombinant human αvβ6 integrin (human, UniProt P06756 31-1048; P18564 22-709); test: ELISA; competitive integrin binding assay: αvβ6-coated plates, isoDGR peptide labeled with peroxidase as probe for the integrin-binding site; Ki
T1 construct: integrin αv subunit, human; integrin β6 subunit, human; details of reagents are in the Supplemental Materials; Such bought integrins are, as I recall, soluble extracellular heterodimers; also called purified αvβ6; source: bought: Bio-Techne

[2] = target: T2, recombinant human αvβ8 integrin (human, UniProt P06756 31-1048; P26012 43-684); test: direct integrin binding assay (near-infrared fluorescence scan of plates); microtiter plates coated with αvβ6 or αvβ8; peptide-IRDye conjugates incubated 1 h, washed, bound fluorescence read with Odyssey CLx; EC50
T2 construct: integrin αv subunit, human; integrin β8 subunit, human; details of reagents are in the Supplemental Materials; also called purified αvβ8; source: bought: Bio-Techne

[3] = target: T3, recombinant murine αvβ6 integrin (murine, UniProt P43406 31-1044; Q9Z0T9 22-708); test: as above
T3 construct: integrin αv subunit, mouse; integrin β6 subunit, mouse; details of reagents are in the Supplemental Materials; source: bought: Bio-Techne
T3 sequence (P43406 whole entry, chain 1 of 2): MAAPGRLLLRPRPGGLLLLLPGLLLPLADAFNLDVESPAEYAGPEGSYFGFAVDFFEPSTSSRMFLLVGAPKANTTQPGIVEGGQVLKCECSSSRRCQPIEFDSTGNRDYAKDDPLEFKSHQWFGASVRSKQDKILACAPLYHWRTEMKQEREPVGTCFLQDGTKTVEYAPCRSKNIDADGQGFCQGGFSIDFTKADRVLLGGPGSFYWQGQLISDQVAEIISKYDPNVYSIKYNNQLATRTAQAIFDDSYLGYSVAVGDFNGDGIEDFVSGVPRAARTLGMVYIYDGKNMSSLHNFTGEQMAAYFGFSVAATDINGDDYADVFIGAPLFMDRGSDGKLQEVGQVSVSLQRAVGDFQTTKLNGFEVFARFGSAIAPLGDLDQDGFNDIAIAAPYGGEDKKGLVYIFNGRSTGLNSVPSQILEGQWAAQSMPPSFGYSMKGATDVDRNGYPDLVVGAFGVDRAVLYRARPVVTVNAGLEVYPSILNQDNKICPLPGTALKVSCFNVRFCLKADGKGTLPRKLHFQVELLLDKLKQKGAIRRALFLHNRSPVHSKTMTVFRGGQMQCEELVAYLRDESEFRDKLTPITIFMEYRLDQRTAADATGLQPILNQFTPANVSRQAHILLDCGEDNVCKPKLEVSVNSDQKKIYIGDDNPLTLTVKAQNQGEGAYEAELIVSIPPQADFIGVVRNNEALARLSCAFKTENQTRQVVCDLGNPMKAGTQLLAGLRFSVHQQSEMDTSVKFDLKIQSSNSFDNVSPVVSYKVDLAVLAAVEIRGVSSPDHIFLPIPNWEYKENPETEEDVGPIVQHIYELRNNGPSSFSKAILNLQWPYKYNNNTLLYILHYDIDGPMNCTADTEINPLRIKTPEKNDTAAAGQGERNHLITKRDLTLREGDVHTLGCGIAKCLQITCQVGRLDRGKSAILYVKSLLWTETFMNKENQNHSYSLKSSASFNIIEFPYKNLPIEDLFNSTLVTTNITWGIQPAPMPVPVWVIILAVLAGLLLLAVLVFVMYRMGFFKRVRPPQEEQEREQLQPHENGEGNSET
T3 sequence (Q9Z0T9 whole entry, chain 2 of 2): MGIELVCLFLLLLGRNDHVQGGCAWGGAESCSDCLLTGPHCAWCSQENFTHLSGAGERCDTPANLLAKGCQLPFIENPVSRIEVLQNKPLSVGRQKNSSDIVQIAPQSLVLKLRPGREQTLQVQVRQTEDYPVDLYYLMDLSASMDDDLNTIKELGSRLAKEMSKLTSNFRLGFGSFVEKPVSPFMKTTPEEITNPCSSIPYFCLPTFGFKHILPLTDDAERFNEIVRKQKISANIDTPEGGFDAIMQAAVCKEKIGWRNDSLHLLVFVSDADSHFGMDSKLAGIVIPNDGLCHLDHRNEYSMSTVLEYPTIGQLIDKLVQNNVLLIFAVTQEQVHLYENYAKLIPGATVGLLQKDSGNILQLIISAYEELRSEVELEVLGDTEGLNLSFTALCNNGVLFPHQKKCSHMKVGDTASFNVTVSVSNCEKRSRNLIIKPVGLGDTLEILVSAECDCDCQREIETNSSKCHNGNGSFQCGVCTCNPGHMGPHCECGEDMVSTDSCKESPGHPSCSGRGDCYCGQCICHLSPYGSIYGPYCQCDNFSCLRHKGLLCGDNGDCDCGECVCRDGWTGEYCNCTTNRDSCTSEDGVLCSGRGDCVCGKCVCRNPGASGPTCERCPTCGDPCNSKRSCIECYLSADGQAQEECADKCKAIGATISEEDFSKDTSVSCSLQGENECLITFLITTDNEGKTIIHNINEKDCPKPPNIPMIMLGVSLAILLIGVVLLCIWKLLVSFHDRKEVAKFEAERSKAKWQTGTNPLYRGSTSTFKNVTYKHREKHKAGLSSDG

[4] = target: T1, recombinant human αvβ6 integrin; test: as above
[5] = target: T4, recombinant murine αvβ8 integrin (murine, UniProt P43406 31-1044; Q0VBD0 22-681); test: as above
T4 construct: integrin αv subunit, mouse; integrin β8 subunit, mouse; details of reagents are in the Supplemental Materials; source: bought: Bio-Techne
T4 sequence (P43406 whole entry, chain 1 of 2): as the sequence (P43406 whole entry, chain 1 of 2) above
T4 sequence (Q0VBD0 whole entry, chain 2 of 2): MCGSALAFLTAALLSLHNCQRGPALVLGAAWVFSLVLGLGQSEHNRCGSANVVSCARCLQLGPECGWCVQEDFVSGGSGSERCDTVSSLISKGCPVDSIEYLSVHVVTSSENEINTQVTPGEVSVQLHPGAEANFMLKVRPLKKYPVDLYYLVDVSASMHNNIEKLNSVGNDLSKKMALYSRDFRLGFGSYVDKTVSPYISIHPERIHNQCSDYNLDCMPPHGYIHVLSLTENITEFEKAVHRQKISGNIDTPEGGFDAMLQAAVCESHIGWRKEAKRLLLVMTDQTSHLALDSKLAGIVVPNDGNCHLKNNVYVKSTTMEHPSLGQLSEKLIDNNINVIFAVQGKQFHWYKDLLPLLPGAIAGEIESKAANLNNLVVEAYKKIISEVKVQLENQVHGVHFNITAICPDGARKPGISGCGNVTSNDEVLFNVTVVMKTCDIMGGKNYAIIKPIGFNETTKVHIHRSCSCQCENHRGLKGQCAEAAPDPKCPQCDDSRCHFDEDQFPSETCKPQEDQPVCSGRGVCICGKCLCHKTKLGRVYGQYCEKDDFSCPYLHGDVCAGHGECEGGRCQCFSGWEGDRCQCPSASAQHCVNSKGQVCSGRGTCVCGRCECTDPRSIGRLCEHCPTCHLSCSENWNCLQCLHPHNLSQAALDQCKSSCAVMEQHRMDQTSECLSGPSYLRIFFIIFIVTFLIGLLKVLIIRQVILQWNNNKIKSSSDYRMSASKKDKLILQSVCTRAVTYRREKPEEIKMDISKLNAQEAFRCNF

Ki [1] [nM] | EC50 [2] [nM] | EC50 [3] [nM] | EC50 [4] [nM] | EC50 [5] [nM] | Binder
1.7 | – | – | – | – | CFETLRGDLRILSILR[Pra]QNL[Lys(N3)]KELQD-NH2 (triazole 17-21) [peptide 5a]
2.3 | – | – | – | – | C(maleimide‑NOTA)FETLRGDLRILSILR[Pra]QNL[Lys(N3)]KELQD-NH2 (triazole 17-21) [5a-NOTA conjugate]
– | 1.9 | 0.9 | 2.8 | 0.65 | C(maleimide‑IRDye 800CW)FETLRGDLRILSILR[Pra]QNL[Lys(N3)]KELQD-NH2 (triazole 17-21) [5a-IRDye conjugate]
